Assay results as given in patent US20220389113A1, “BINDING PROTEINS TO CUB DOMAIN-CONTAINING PROTEIN (CDCP1)” (COMMONWEALTH SCIENTIFIC AND INDUSTRIAL RESEARCH ORGANISATION, priority 2019, published 2022).

Experiments:
[1] = tested on: TKCC05 cells and normal human pancreatic stellate cells; test: Co-culture assay of TKCC05 cells and normal human pancreatic stellate cells; format: cell-based
Experimental: For survival assays, cells (5,000/well) were plated in 96-well plates and allowed to attach for 24 h. Cells were then treated for 24 h with 10D7 (5 μg/ml) or isotype control IgG (5 μg/ml) before addition of gemcitabine (0.02 to 500 nM) and incubation for another 72 h. In assays assessing the effect of cytotoxin-conjugated antibodies, cells were treated for 12 h with 10D7-MMAE, IgG-MMAE, 10D7 or IgG (0.0625 to 1.0 μg/ml) then washed before the media was replaced with standard growth medium for 72 h. The relative number of viable cells was then measured by adding the CellTiter AQueous One Solution Reagent to each well and measuring absorbance at 490 nm as described above. In co-culture assays, mKO2 expressing TKCC05 PDAC cells (2,000 cells/well) were co-cultured with GFP expressing normal human pancreatic stellate cells (2,000 cells/well) for 24 h in a 1:1 mixture of TKCC05 and hPSC growth medium before treatments with 10D7-MMAE, IgG-MMAE, 10D7 or IgG (0.0625 to 1.0 μg/ml), IgG or 10D7 (1 μg/ml) or PBS as above. Cells were imaged by wide-field fluorescence microscopy and the total area of confluence for each cell type was quantified by image analysis using Image J software.
The generated antibody-drug conjugate (ADC), 10D7-MMAE, has an average drug-antibody ratio (DAR) of 4.5 to 4.7, and retains the functional ability to induce phosphorylation of CDCP1 and Src (see Example 7). […]

[2] = tested on: p-CDCP1-Y734 in HEY cells; test: Western blot of CDCP1-Y734 and Src-Y416 phosphorylation in HEY cells; format: cell-based, human; settings: 5 μg/ml
Experimental: Cells were biotinylated (4° C., 1 h) with cell-impermeant EZ-link NHS-SS Biotin (1.22 mg/ml; Thermo) then PBS washed and lysed in buffer containing 20 mM HEPES, 150 mM NaCl, 1 mM EDTA, 1% Triton X-100, 1×Complete protease inhibitor cocktail (PIC) and phosphatase inhibitors (2 mM Na3VO4, 10 mM NaF). After centrifugation the supernatant was incubated (15 minutes, 4° C.) with ImmunoPure immobilized streptavidin beads (Thermo). After pelleting, the supernatant containing intracellular proteins was transferred to a separate tube, and the beads washed in lysis buffer containing PIC and phosphatase inhibitors. Lysates and proteins separated by cell surface biotinylation (40 μg/lane) were examined by Western blot analysis as described (He Y, et al., (2016) Oncogene. 35(4):468-78).
Since Src tyrosine phosphorylation is important in CDCP1-mediated signal transduction (Casar B, et al., (2012) Oncogene. 31(35):3924-38), the inventors next examined this in antibody induced processing of CDCP1. […] Live-cell images of the four cell lines were analysed to determine the distance moved (track length) by individual CDCP1^GFP positive puncta during mAb-induced internalization (FIG. 5C, left). […]

OVMZ6 cells = test: Colony formation assay, OVMZ6 cells; format: cell-based, human; settings: even at the highest concentration
Experimental: MMAE-conjugated 10D7 and IgG1K were prepared as described (Nielsen C F, et al., (2017) Oncotarget. 8(27):44605-24.53) and drug-antibody ratio (DAR) determined by reverse phase LC/MS as reported (Basa L. et al., (2013) Methods Mol Biol. 1045:285-93.) on an ABSCIEX Triple TOF spectrometer (AB SCIEX Framingham, Mass.) coupled to a Shimadzu Nexera 1D UHPLC system (Shimadzu, Rydalmere, Australia). ADC peak identification was performed as reported with DAR determined by peak area integration (Hamblett K J, et al., (2004) Clin Cancer Res. 10(20):7063-70; Yao X, et al., (2015) Breast Cancer Res Treat. 153(1):123-33). Colony-formation assays were performed as described (Crowley L C, et al., (2016) Cold Spring Harb Protoc. 2016(8):pdb.prot087171) on cells (100,000/ml) treated with the indicated concentrations of 10D7, 10D7-MMAE, IgG or IgG-MMAE overnight before being lifted and replated in 24-well plates (200 cells/well). After a defined growth period media was removed and cells gently PBS washed before staining with 0.1% crystal violet (Sigma-Aldrich) in 2% ethanol. After 20 minutes and stained cells were scanned (700 nm) on a LiCOR System (Odyssey V3.0 software) with images analyzed using the ColonyArea ImageJ plugin to quantify colony area and intensity (Guzmán C, et al., (2014) PLoS One. 9(3):e92444.). […]

B1: 10D7-MMAE (conjugate)
VH: EVQLQQFGAELVKPGASVKISCKASGYSFSDFNIEWLKQSHGKSLEWIGDINPNYDSTNYNQKFKGRATLTVDKSSSTAYMEVRSLTSEDTAVYYCARLGYGYAMDYWGQGTSVTVSS
VL: NIVMTQSPQSMSMSVGERVTLSCKASENVGAYVSWFQQKPDQSPKLLILAASNRYTGVPARFIGSGSATDFTLTISSVQAEDLADYHCGQSYTYPYTFGGGTKLEIKRADAAPTVS
response of TKCC05 cells ([1]; CDCP1 expressing cells): very sensitive | response of normal human pancreatic stellate cells ([1]; CDCP1 non-expressing cells): unresponsive | time to phosphorylation of CDCP1-Y734 and Src-Y416 [2]: ≤ 1 h | colony formation (OVMZ6 cells): unaffected
